The record followed here is paper PMC3484714 (Journal of the American Chemical Society, 2012).

The chains are these.
B1: methyltransferase (MeTr) from Moorella thermoacetica, homodimer (enzyme, UniProt Q46389 1-262, looked up)
chain: MLIIGERINGMFGDIKRAIQERDPAPVQEWARRQEEGGARALDLNVGPAVQDKVSAMEWLVEVTQEVSNLTLCLDSTNIKAIEAGLKKCKNRAMINSTNAEREKVEKLFPLAVEHGAALIGLTMNKTGIPKDSDTRLAFAMELVAAADEFGLPMEDLYIDPLILPANVAQDHAPEVLKTLQQIKMLADPAPKTVLGLSNVSQNCQNRPLINRTFLAMAMACGLDAAIADACDEALIETAATAEILLNQTVYCDSFVKMFKTR
B2: corrinoid iron-sulfur protein (CFeSP) from Moorella thermoacetica, heterodimer of large and small subunit (complex)
chain 1: MPLTGLEIYKQLPKKNCGECGTPTCLAFAMNLASGKASLDSCPYVSDAAREALDAAAAPPIAKVVLGAGPTAVEMGDETELFRHDKRFYHETAIAIQVSDNLSSEELKAKVEAINGLNFDRVGQHYTIQAIAIRHDADDPAAFKAAVASVAAATQLNLVLMADDPDVLKEALAGVADRKPLLYAATGANYEAMTALAKENNCPLAVYGNGLEELAELVDKIVALGHKQLVLDPGARETSRAIADFTQIRRLAIKKRFRSFGYPIIALTTAANPLDEVLQAVNYVTKYASLVVLRTDAKEHLLPLLSWRQNLYTDPQVPIRVEEKLNEIGAVNENSPVYVTTNFSLTYYSVEGEIESTKIPSYLLSVDTDGLSVLTAYADGKFEAEKIAAVMKKVDLDNKVKRHRIIIPGAVAVLKGKLEDLTGWEVIVGPREASGIVAFARANLAS
chain 2: MAVQILRDRSRAAVQKVVLGATKDQGGTRSHTIVVGGDAALPFHHFEGEIVNRPVIGMEVQDIVPDWPDVLKDPFTDVINEPGRWAQKCVAEYGADLIYLKLDGADPEGANHSVDQCVATVKEVLQAVGVPLVVVGCGDVEKDHEVLEAVAEAAAGENLLLGNAEQENYKSLTAACMVHKHNIIARSPLDINICKQLNILINEMNLPLDHIVIDPSIGGLGYGIEYSFSIMERIRLGALQGDKMLSMPVICTVGYEAWRAKEASAPVSEYPGWGKETERGILWEAVTATALLQAGAHILLMRHPEAVARVKENIDQLMVSNAY

The data set “SAXS” deals with the molecule itself. As to the kind of experiment: SAXS.
In data set [1] the target is B1. Briefly: SAXS.
Data set [2] concerns the target B1. Briefly: ITC.
The target in data set [3] is B1. Briefly: SAXS. The source holds these as a separate data set.

Like-named read-outs stand apart in the source and are kept apart here.

As for B1, in “SAXS”, the “stoichiometry N” value is 2.
Consider B2, for which the “stoichiometry N” value in data set [1] was 2 CFeSP heterodimer per MeTr homodimer. In data set [2], the “KD of the first binding event” value worked out at 7.7 µM, the “KD of the second binding event” value was found to be 111 µM and the “dH (1:1 complex)” value came to 4.9 kcal/mol. Besides, in data set [3], the “stoichiometry N” value is 1 CFeSP heterodimer per MeTr homodimer.
